Measured values: the supplement of paper PMC10126150
± gives the standard deviation of the averaged measurements.

test system: ATP; experiment: switch fluorescence ratio, 500 uM ATP over buffer (Cy3 cluster intensity, sum of 5 cycles each) (fold (ratio)); higher = stronger signal-on switching upon ATP binding; sequences stand for … in TCGTCGGCAGCGTCAGATGTGTATAAGAGACAGTTTTTTTTTTTTTTTTTTTTTTTTT…TC; conditions: aptamer strand: ATP DNA aptamer (quencher-CACCTGGGGGAGTATTGCGGAGGAAGG + anchor), 100 nM annealed; ATP concentration: 500 uM
Outline: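 Between each of five buffer/ATP cycles, the flow-cell was stripped with NaOH and re-annealed. Each cycle imaged Cy3-labelled switching-strand clusters, annealed to 100 nM quencher-labelled ATP aptamer on a modified Illumina MiSeq flow-cell, first in selection buffer and then after 15 min with 500 uM ATP at 22 °C. The fluorescence ratio is summed target-cycle over summed buffer-cycle Cy3 intensity per cluster, averaged per switch-domain sequence, with clusters outside 100-1000 RFU excluded.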
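Note: ATP exposure 15 min at 22 °C before imaging.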

| Sequence | switch fluorescence ratio |
| --- | --- |
| TTTTGTTGGG | 0.991 ± 0.03 |
| TTTTGTTGTA | 0.996 ± 0.024 |
| TTTTGTTGTT | 0.995 ± 0.035 |
| TTTTGTTTAT | 1.01 ± 0.058 |
| TTTTGTTTCT | 0.992 ± 0.027 |
| TTTTGTTTTA | 1 ± 0.015 |
| TTTTTAAAAA | 1.01 ± 0.059 |
| TTTTTAAAGC | 0.995 ± 0.038 |
| TTTTTAACGG | 1.01 ± 0.024 |
| TTTTTAAGCA | 1.02 ± 0.034 |
| TTTTTAAGGC | 1.02 ± 0.032 |
| TTTTTAAGTC | 0.985 ± 0.026 |
| TTTTTAATCC | 1.05 ± 0.017 |
| TTTTTACATC | 1 ± 0.021 |
| TTTTTACCCT | 1.08 ± 0.067 |
| TTTTTACGGA | 1.02 ± 0.043 |
| TTTTTACGGG | 1.02 ± 0.043 |
| TTTTTACTGC | 0.997 ± 0.029 |
| TTTTTAGAAT | 0.993 ± 0.027 |
| TTTTTAGAGT | 0.985 ± 0.026 |
| TTTTTAGCGT | 0.995 ± 0.027 |
| TTTTTAGGAG | 1 ± 0.035 |
| TTTTTAGGTC | 1.1 ± 0.21 |

| Sequence | switch fluorescence ratio |
| --- | --- |
| TTTTTAGGTG | 1.27 ± 0.2 |
| TTTTTAGTAG | 1.01 ± 0.03 |
| TTTTTATATG | 0.999 ± 0.02 |
| TTTTTATCAA | 1.01 ± 0.041 |
| TTTTTATCGG | 1.01 ± 0.024 |
| TTTTTATTGG | 0.985 ± 0.025 |
| TTTTTATTTC | 1 ± 0.019 |
| TTTTTATTTT | 1.01 ± 0.074 |
| TTTTTCAACT | 1.03 ± 0.036 |
| TTTTTCAGGA | 0.975 ± 0.024 |
| TTTTTCAGGC | 0.969 ± 0.055 |
| TTTTTCATAA | 0.999 ± 0.027 |
| TTTTTCATCC | 1.18 ± 0.31 |
| TTTTTCATTT | 1.01 ± 0.023 |
| TTTTTCCAAC | 1.02 ± 0.012 |
| TTTTTCCCGC | 1.07 ± 0.053 |
| TTTTTCCTCT | 1.036 ± 0.0026 |
| TTTTTCGGCA | 1.31 ± 0.43 |
| TTTTTCTCAG | 1.01 ± 0.031 |
| TTTTTCTGGG | 0.977 ± 0.0099 |
| TTTTTCTTGT | 1.01 ± 0.047 |
| TTTTTCTTTT | 0.993 ± 0.029 |
| TTTTTGACTG | 0.994 ± 0.075 |

| Sequence | switch fluorescence ratio |
| --- | --- |
| TTTTTGAGAT | 0.994 ± 0.03 |
| TTTTTGAGCG | 1.04 ± 0.0024 |
| TTTTTGATGT | 0.994 ± 0.022 |
| TTTTTGCGGC | 0.999 ± 0.03 |
| TTTTTGCTGC | 0.999 ± 0.024 |
| TTTTTGGAGA | 0.994 ± 0.025 |
| TTTTTGGCCG | 1.06 ± 0.034 |
| TTTTTGGCTG | 0.9818 ± 0.0049 |
| TTTTTGGTTG | 1.01 ± 0.012 |
| TTTTTGGTTT | 1.02 ± 0.083 |
| TTTTTGTAGA | 1.01 ± 0.022 |
| TTTTTGTGTA | 0.969 ± 0.012 |
| TTTTTGTT | 0.99 ± 0.0068 |
| TTTTTGTTGG | 1 ± 0.034 |
| TTTTTGTTGT | 1.01 ± 0.052 |
| TTTTTGTTT | 0.988 ± 0.01 |
| TTTTTTAAAG | 0.99843 ± 0.00078 |
| TTTTTTACCT | 1.2 ± 0.015 |
| TTTTTTAGAA | 1.01 ± 0.025 |
| TTTTTTAGAC | 1.04 ± 0.08 |
| TTTTTTAGC | 1.02 ± 0.03 |
| TTTTTTAGCA | 1.02 ± 0.023 |
| TTTTTTAGGT | 0.99 ± 0.03 |

| Sequence | switch fluorescence ratio |
| --- | --- |
| TTTTTTAGTC | 1 ± 0.04 |
| TTTTTTAGTT | 0.992 ± 0.025 |
| TTTTTTATAG | 1 ± 0.038 |
| TTTTTTATGT | 0.995 ± 0.029 |
| TTTTTTATT | 0.963 ± 0.013 |
| TTTTTTATTA | 0.986 ± 0.023 |
| TTTTTTCAAC | 1.15 ± 0.26 |
| TTTTTTCACT | 1.17 ± 0.34 |
| TTTTTTCATT | 1.02 ± 0.052 |
| TTTTTTCCCA | 1.01 ± 0.011 |
| TTTTTTCTAT | 0.996 ± 0.067 |
| TTTTTTGAAA | 1 ± 0.054 |
| TTTTTTGACC | 1.02 ± 0.044 |
| TTTTTTGACT | 0.995 ± 0.04 |
| TTTTTTGAGA | 0.975 ± 0.017 |
| TTTTTTGATT | 1.01 ± 0.02 |
| TTTTTTGGGT | 0.994 ± 0.024 |
| TTTTTTGTTC | 1.14 ± 0.3 |
| TTTTTTGTTG | 0.987 ± 0.029 |
| TTTTTTT | 0.9671 ± 0.0074 |
| TTTTTTTGTA | 1.01 ± 0.042 |
| TTTTTTTTGT | 1 ± 0.035 |
| TTTTTTTTT | 1.01 ± 0.021 |
